Experimental data: article PMC9332313, “Folding and Binding Mechanisms of the SH2 Domain from Crkl” (Biomolecules, 2022)
Square brackets hold non-standard residues; d marks the D form. Ends that are not written are not given here. * marks the point of attachment. pY = N[C@@H](Cc1ccc(OP(=O)(O)O)cc1)C(=O)O; Dansyl = CN(C)c1cccc2c(S(=O)(=O)*)cccc12

How the values were obtained:
Conditions in all cases: both partners purified
[1] = molecular target: T1, SH2 domain of Crkl protein (residues 1-111), H33A variant (UniProt P46109 1-111, H33A); experiment: stopped-flow fluorescence kinetics (FRET); dansyl-Pax112-123 constant at 2 μM mixed with Crkl-SH2 2 to 10 μM (pseudo-first-order, kon); koff by displacement of the preincubated 2 µM complex with excess non-dansylated Pax112-123 (30 μM); 283 K; 50 mM BisTRIS pH 6.8, 0.5 M NaCl
T1 construct: Crkl adaptor protein, SH2 domain, residues 1-111, His33 replaced by alanine; Site-directed mutant of m1 (QuikChange); source: E. coli BL21 (DE3), purified (HisTrap nickel column, desalting); not shown: His tag, N-terminal, kept

[2] = molecular target: T2, SH2 domain of Crkl protein (residues 1-111), wild type (UniProt P46109 1-111); experiment: as above
T2 construct: Crkl adaptor protein, SH2 domain, residues 1-111; Subcloned in pET28b+; all experiments were done on the N-terminally His-tagged protein; also called Crkl-SH2; Crkl SH2 domain; source: E. coli BL21 (DE3), purified (HisTrap nickel column, desalting); not shown: His tag, N-terminal, kept

[3] = molecular target: T3, SH2 domain of Crkl protein (residues 1-111), H91A variant (UniProt P46109 1-111, H91A); experiment: as above
T3 construct: Crkl adaptor protein, SH2 domain, residues 1-111, His91 replaced by alanine; Site-directed mutant of m1 (QuikChange); source: E. coli BL21 (DE3), purified (HisTrap nickel column, desalting); not shown: His tag, N-terminal, kept

[4] = molecular target: T4, SH2 domain of Crkl protein (residues 1-111), H80A variant (UniProt P46109 1-111, H80A); experiment: as above
T4 construct: Crkl adaptor protein, SH2 domain, residues 1-111, His80 replaced by alanine; Site-directed mutant of m1 (QuikChange); source: E. coli BL21 (DE3), purified (HisTrap nickel column, desalting); not shown: His tag, N-terminal, kept

[5] = molecular target: T1, SH2 domain of Crkl protein (residues …); experiment: stopped-flow fluorescence kinetics (FRET); dansyl-Pax112-123 constant at 2 μM mixed with Crkl-SH2 2 to 10 μM (pseudo-first-order, kon); koff by displacement of the preincubated 2 µM complex with excess non-dansylated Pax112-123 (30 μM); 283 K; 50 mM sodium-acetate pH 5.5, 0.5 M NaCl
[6] = molecular target: T2, SH2 domain of Crkl protein (residues …); experiment: as above
[7] = molecular target: T3, SH2 domain of Crkl protein (residues …); experiment: as above
[8] = molecular target: T4, SH2 domain of Crkl protein (residues …); experiment: as above
[9] = molecular target: T2, SH2 domain of Crkl protein (residues …); experiment: stopped-flow fluorescence kinetics (FRET); dansyl-Pax112-123 constant at 2 μM mixed with Crkl-SH2 2 to 10 μM (pseudo-first-order, kon); koff by displacement of the preincubated 2 µM complex with excess non-dansylated Pax112-123 (30 μM); 283 K; 50 mM TrisHCl pH 9.0, 0.5 M NaCl
[10] = molecular target: T1, SH2 domain of Crkl protein (residues …); experiment: stopped-flow fluorescence kinetics (FRET); dansyl-Pax112-123 constant at 2 μM mixed with Crkl-SH2 2 to 10 μM (pseudo-first-order, kon); koff by displacement of the preincubated 2 µM complex with excess non-dansylated Pax112-123 (30 μM); 283 K; 50 mM TrisHCl pH 8.0, 0.5 M NaCl

T3 sequence (P46109 1-111 H91A): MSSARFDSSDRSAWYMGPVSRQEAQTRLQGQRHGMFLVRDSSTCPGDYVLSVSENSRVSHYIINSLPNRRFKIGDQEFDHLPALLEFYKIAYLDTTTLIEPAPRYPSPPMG
T2 sequence (P46109 1-111): as the sequence (P46109 1-111 H91A) above, with A91H counted along it
T1 sequence (P46109 1-111 H33A): as the sequence (P46109 1-111 H91A) above, with H33A, A91H counted along it
T4 sequence (P46109 1-111 H80A): as the sequence (P46109 1-111 H91A) above, with H80A, A91H counted along it

B1: dansylated Pax_(112–123) peptide (Dans-GEEEHV-pY-SFPNK) (peptide)
peptide: Dansyl-GEEEHV[pY]SFPNK
notes: The dansyl group is the FRET acceptor of Trp14 of the SH2 domain; source: synthetic peptide, bought: GenScript
Kd [1]: 3.4 ± 0.2 µM | koff [1]: 22.4 ± 0.5 s⁻¹ | kon [1]: 6.6e+06 ± 400000 M⁻¹ s⁻¹ | Kd [2]: 2.4 ± 0.1 µM | koff [2]: 21.4 ± 0.2 s⁻¹ | kon [2]: 8.9e+06 ± 400000 M⁻¹ s⁻¹ | Kd [3]: 3 ± 0.1 µM | koff [3]: 23.4 ± 0.4 s⁻¹ | kon [3]: 7.8e+06 ± 300000 M⁻¹ s⁻¹ | Kd [4]: 3.1 ± 0.2 µM | koff [4]: 21.6 ± 0.4 s⁻¹ | kon [4]: 7.1e+06 ± 400000 M⁻¹ s⁻¹ | Kd [5]: 3.4 ± 0.4 µM | koff [5]: 22.8 ± 2.2 s⁻¹ | kon [5]: 6.7e+06 ± 400000 M⁻¹ s⁻¹ | Kd [6]: 3 ± 0.3 µM | koff [6]: 25.6 ± 0.4 s⁻¹ | kon [6]: 8.4e+06 ± 700000 M⁻¹ s⁻¹ | Kd [7]: 4.3 ± 0.2 µM | koff [7]: 24.1 ± 0.4 s⁻¹ | kon [7]: 5.6e+06 ± 300000 M⁻¹ s⁻¹ | Kd [8]: 2.5 ± 0.5 µM | koff [8]: 20 ± 3.7 s⁻¹ | kon [8]: 7.9e+06 ± 900000 M⁻¹ s⁻¹ | Kd [9]: 2.5 ± 0.2 µM | koff [9]: 36.1 ± 0.6 s⁻¹ | kon [9]: 1.41e+07 ± 900000 M⁻¹ s⁻¹ | Kd [10]: 2 ± 0.3 µM | koff [10]: 29.3 ± 3.4 s⁻¹ | kon [10]: 1.46e+07 ± 1.1e+06 M⁻¹ s⁻¹
